In article PMC5426085 (Frontiers in Microbiology, 2017):

Key:
FtsZ (SaFtsZ) = FtsZ (SaFtsZ) (Staphylococcus aureus, UniProt P0A031); assay: GTPase assay (phosphate release), […]° light scattering polymerization, TEM, far-UV CD with recombinant purified FtsZ; assay type: biochemical; details: read-out: % inhibition of GTPase at 8 μg/mL (~15 μM)
[1] = target: the molecule itself; assay: 90° light scattering of polymerization; FtsZ 6 μM in 20 mM Tris pH 7.4, 0.01% Triton X-100; started with 20 mM KCl, 5 mM MgCl2, 1 mM GTP; 37°C; 600 nm; without and with compound 1 (1 to 6 μg/mL); self-assembly into polymers

| Molecule | inhibition at 8 µg/mL (FtsZ (SaFtsZ)) [%] | binding result [1] |
| --- | --- | --- |
| CN1/C(=C/c2cc(/C=C/c3ccc(O)cc3)[n+](C)c3ccccc23)Sc2ccccc21 [compound 1, 2-((E)-4-hydroxystyryl)-1-methyl-4-((Z)-(3-methylbenzo[d]thiazol-2(3H)-ylidene)methyl)quinolin-1-ium iodide] | 58 | – |
| E. coli FtsZ (natural protein, UniProt P0A9A6 1-383, looked up, cell division protein FtsZ, Escherichia coli; also called EcFtsZ; source: recombinant; cloned, overexpressed, and purified as described previously (Sun et al., 2014; Li et al., 2015)) MFEPMELTNDAVIKVIGVGGGGGNAVEHMVRERIEGVEFFAVNTDAQALRKTAVGQTIQIGSGITKGLGAGANPEVGRNAADEDRDALRAALEGADMVFIAAGMGGGTGTGAAPVVAEVAKDLGILTVAVVTKPFNFEGKKRMAFAEQGITELSKHVDSLITIPNDKLLKVLGRGISLLDAFGAANDVLKGAVQGIAELITRPGLMNVDFADVRTVMSEMGYAMMGSGVASGEDRAEEAAEMAISSPLLEDIDLSGARGVLVNITAGFDLRLDEFETVGNTIRAFASDNATVVIGTSLDPDMNDELRVTVVATGIGMDKRPEITLVTNKQVQQPVMDRYQQHGMAPLTQEQKPVAKVVNDNAPQTAKEPDYLDIPAFLRKQAD | – | binds |
| Staphylococcus aureus FtsZ (natural protein, UniProt P0A031 1-390, looked up, cell division protein FtsZ, Staphylococcus aureus; also called SaFtsZ; filamenting temperature-sensitive mutant Z; source: recombinant; cloned, overexpressed, and purified as described previously (Sun et al., 2014; Li et al., 2015)) MLEFEQGFNHLATLKVIGVGGGGNNAVNRMIDHGMNNVEFIAINTDGQALNLSKAESKIQIGEKLTRGLGAGANPEIGKKAAEESREQIEDAIQGADMVFVTSGMGGGTGTGAAPVVAKIAKEMGALTVGVVTRPFSFEGRKRQTQAAAGVEAMKAAVDTLIVIPNDRLLDIVDKSTPMMEAFKEADNVLRQGVQGISDLIAVSGEVNLDFADVKTIMSNQGSALMGIGVSSGENRAVEAAKKAISSPLLETSIVGAQGVLMNITGGESLSLFEAQEAADIVQDAADEDVNMIFGTVINPELQDEIVVTVIATGFDDKPTSHGRKSGSTGFGTSVNTSSNATSKDESFTSNSSNAQATDSVSERTHTTKEDDIPSFIRNREERRSRRTRR | – | binds |
